Reference: patent US10088479B2, “Biomarker and uses thereof” (ISIS INNOVATION LIMITED, priority 2014, dated 2018)

Key:
[1] = tested on: primary human macrophages; assay: Cytokine synthesis (ELISA) in primary human macrophages stimulated with tenascin-C or its domains; type: cell-based; conditions: 24 h
Experimental: Human monocytes were isolated from peripheral blood (London Blood Bank) and macrophages were derived from monocytes after differentiation for 4 days with 100 ng/ml of M-CSF as previously described (Foxwell (1998)).
(§1) Immediately after isolation, RA membrane cells and macrophages were cultured at 1×10^5 cells/well in RPMI 1640 containing 10% (v/v) FBS and 100 U/ml (Units/ml) penicillin/streptomycin in 96-well tissue culture plates for 24 hours before stimulation. Synovial fibroblasts (used only at either passage number 2 or 3) were cultured at 1×10^4 cells/well in DMEM containing 10% (v/v) FBS and 100 U/ml penicillin/streptomycin in 96-well tissue culture plates for 24 hours before stimulation.
Cells were incubated for 24 hours at 37° C. with the indicated doses of tenascin-C and recombinant tenascin-C fragments (1.0 μM-1.0 nM). […]
(§2) Supernatants were subsequently examined for the presence of the cytokines TNF-α, IL-6, and IL-8 by enzyme-linked immunosorbent assay (ELISA) according to the manufacturer's instructions. Absorbance was read on a spectrophotometric ELISA plate reader (Labsystems Multiscan Biochromic, Vantaa, Finland) and analyzed using the Ascent software program (Thermo Labsystems, Altrincham, UK).

RA synovial fibroblasts = assay: Cytokine synthesis (ELISA) in RA synovial fibroblasts stimulated with tenascin-C, FBG or LPS; type: cell-based, human; conditions: 24 h; for cytokine synthesis (IL-6, IL-8) in synovial fibroblasts: LPS 10 ng/ml
Source text: (§3) RA membrane cells (representing a mixed population of all synovial cell types) were to isolated from synovial membranes obtained from patients undergoing joint replacement surgery as previously described (Brennan (1989)). RA synovial fibroblasts were isolated from the mixed population of RA membrane cells as previously described (Brennan (1989)). The study was approved by the local Trust ethics committee (Riverside NHS Research Committee), and waste tissue (synovium after joint replacement surgery) was obtained only after receiving signed informed consent from the patient and anonymyzing the tissue to protect patient identity.
as §1
(§4) Cells were incubated for 24 hours at 37° C. with the indicated doses of tenascin-C and recombinant tenascin-C fragments (1.0 μM-1.0 nM). Cells were also stimulated where indicated with LPS (1 ng/ml for human macrophages, 10 ng/ml for human fibroblasts, RA membrane cells and HEKs, 100 ng/ml for MEFS and BMDMs and 10 ng/ml for HEKS), PAM3 (10 ng/ml for human macrophages, human fibroblasts, and HEKs, 100 ng/ml for MEFs and BMDMs), murine IL-1 (5 ng/ml for MEFS) and murine TNF-α (100 ng/ml for MEFS). Unless specifically stated otherwise rough LPS was used for in vitro studies.
as §2

serum from RA patients = assay: Western blot of citrullinated tenascin-C probed with serum from RA patients or healthy controls; type: binding, human; conditions: sera from RA patients or normal healthy controls
Experimental: 33.33 ul of citrullination reaction (cit-TNC alone or cit-TNC combined with cit-FBG) was loaded into NuPAGE® Novex 4-12% Bis-tris gel using a 1.0 mm 2D single lane well.
After electrophoresis proteins were transferred to nitrocellulose and the membrane blocked and then cut into strips (up to 8 strips ˜0.7 cm wide). Strips were incubated with serum from RA patients or normal healthy individuals diluted 1:100 in 5% milk TBS-tween. Strips were incubated in 15 ml falcon tubes on rollers 1 h room temperature, then washed 3×5 min, 1×15 min in tubes with TBS-Tween. Strips were then incubated with secondary mouse anti-human Ig 1:5000 1 h in room temperature, then washed 3×5 min, 1×15 min in the dish with TBS-tween. Strips were finally incubated with ECL reagents and exposed to film.

[2] = tested on: synovial membranes from RA patients; assay: Cytokine synthesis in RA synovial membrane cells stimulated with FBG; type: cell-based, human; conditions: FBG 1.0-0.01 μM, 24 h
Source text: as §3
Immediately after isolation, RA membrane cells and macrophages were cultured at 1×10^5 cells/well in RPMI 1640 containing 10% (v/v) FBS and 100 U/ml (Units/ml) penicillin/streptomycin in 96-well tissue culture plates for 24 hours before stimulation. […]
as §2

knee joint = assay: Intra-articular injection of FBG into mouse knee joint, histology; type: in vivo, mice; conditions: for joint inflammation, histology: wild type mice
Experimental: Wild type mice were anesthetized by intraperitoneal injection of 150 μl of Hypnorm diluted 1:10 in sterile water and then injected with 100 ng, 1 or 3 μg FBG in 10 μl of sterile PBS into the right knee joint using a sterile 33-gauge microcannula. Control mice received an injection of 10 μl PBS alone or were not injected.
On days 3 and 7, mice were euthanized, the knee joints were excised and fixed in 10% (volume/volume) buffered formalin, decalcified, with 10% EDTA and processed to paraffin.
Coronal tissue sections (4 μm) were cut at 7 depths throughout the joint; 80 μm apart and stained with hematoxylin and eosin or Safranin-O to assess joint pathology. Histopathologic changes were scored using the following parameters as described in Van Lent (2006).
Inflammation (the influx of inflammatory cells into synovium (infiltrate) and the joint cavity (exudates), was graded using an arbitrary scale from 0 (no inflammation) to 3 (severe inflammation). Chondrocyte death was determined as the percentage of cartilage area containing empty lacunae in relation to the total area. Cartilage surface erosion was determined as the amount of cartilage lost in relation to the total cartilage area. Bone destruction was determined in 10 different areas of the total knee joint section. Destruction was graded on a scale of 0 (no damage) to 3 (complete loss of bone structure). Histological analysis was performed by an investigator who was blinded to the experimental groups. The mean score for each animal in an experimental group was calculated by averaging the histopathologic scores in at least 5 section depths per joint.

[3] = tested on: human dermal fibroblasts (HDF); assay: Cell adhesion to coated FBG, crystal violet; type: cell-based; conditions: coated wells, 45 minutes
Experimental: (§5) (A) The sequence identified to bind integrin αvβ3 is shown in white (Yokoyama et al., 2000). Within this sequence two Arginines (shown in black) were identified to be citrullinated. (B) Wells of a 96 well plate were coated with different concentrations of FBG, citrullinated FBG (cFBG), FBG incubated in buffer without Calcium (FBG —Ca^2+), or FBG incubated without PAD (FBG —PAD). As a positive control wells were coated with Fibronectin (FN) (1 ug/ml), and coating with BSA (10 mg/ml) served as negative control. Plates were incubated with human dermal fibroblasts (HDF) or synovial fibroblasts from RA patients (RAF) for 45 minutes and adhesion was measured by determining absorbance of attached cells after staining with crystal violet (0.1%). Data are shown as the mean of at least four independent experiments+s.e.m., *=p<0.05, **=p<0.01.

[4] = tested on: synovial fibroblasts from RA joints (RAF); assay: Cell adhesion to coated FBG, crystal violet; type: cell-based, human; conditions: coated wells, 45 minutes
Experimental: as §5

[5] = tested on: embryonic fibroblasts or macrophages; assay: Cytokine synthesis in embryonic fibroblasts or macrophages from MyD88, TLR2 or TLR4 deficient mice; type: cell-based; conditions: FBG 1 μM, 24 h
Experimental: MEFs express high levels of mRNA of all 9 murine TLRs and are specifically and highly responsive to TLR ligand activation. […] MEFs were isolated from d13 embryos harvested from age-matched, pregnant female wild type, TLR2, TLR4 and null mice (as described in Todaro (1963)). Fibroblasts were cultured at 2×10^4 cells/well in DMEM containing 10% (v/v) FBS and 100 U/ml penicillin/streptomycin in 96-well tissue culture plates for 24 hours before stimulation.
BMDMs were derived by aspirating the femurs of age matched female wild type, TLR2 and TLR4 null mice as described in Butler (1999)) and culturing the cells for 7 days in DMEM, 20% (v/v) FBS, 10 ml/L (v/v) antibiotic-antimycotic solution PSA, 50 μM β-Mercaptoethanol and 10 ng/ml M-CSF. Macrophages were then cultured at 1×10^5 cells/well in DMEM, 20% (v/v) FBS, 10 ml/L (v/v) antibiotic-antimycotic solution PSA, 50 μM β-Mercaptoethanol in 96-well tissue culture plates for 24 hours before stimulation.
as §4, §2

| Molecule | production of TNF-α, IL-6 and IL-8 ([1]; human macrophages) | TNF-α synthesis in fibroblasts (RA synovial fibroblasts) | cytokine synthesis (IL-6, IL-8) in synovial fibroblasts (RA synovial fibroblasts) | reactivity with sera in blots (serum from RA patients) | TNF-α synthesis in human macrophages ([1]; 1.0 μM tenascin-C domains) | synthesis of IL-6, IL-8 and TNF-α in RA synovial membranes [2] | joint inflammation (knee joint; TLR2 null mice, 1 μg FBG intra-articular, 3 days) | joint inflammation, histology (knee joint; 100 ng FBG intra-articular) | joint inflammation, histology (knee joint; 1 μg FBG intra-articular, 3 days) | joint inflammation, histology (knee joint; 3 μg FBG intra-articular) | adhesion of HDF [3] | adhesion of RAF [4] | cytokine synthesis in MyD88 deficient embryonic fibroblasts ([5]; MyD88 -/-) | cytokine synthesis in TLR2 deficient embryonic fibroblasts or macrophages ([5]; TLR2 -/-) | cytokine synthesis in TLR4 deficient embryonic fibroblasts or macrophages ([5]; TLR4 -/-) |
| --- | --- | --- | --- | --- | --- | --- | --- | --- | --- | --- | --- | --- | --- | --- | --- |
| tenascin-C: purified recombinant full-length human tenascin-C, native (non-citrullinated) | dose dependently stimulated | Neither LPS nor tenascin-C induced TNF-α synthesis | only induced IL-6 synthesis | No reactivity |  |  |  |  |  |  |  |  |  |  |  |
| FBG: recombinant fibrinogen-like globe domain of human tenascin-C (protein, left off: small tags and cut ends, recombinant fibrinogen-like globe domain of human tenascin-C) GLLYPFPKDCSQAMLNGDTTSGLYTIYLNGDKAEALEVFCDMTSDGGGWIVFLRRKNGRENFYQNWKAYAAGFGDRREEFWLGLDNLNKITAQGQYELRVDLRDHGETAFAVYDKFSVGDAKTRYKLKVEGYSGTAGDSMAYHNGRSFSTFDKDTDSAITNCALSYKGAFWYRNCHRVNLMGRYGDNNHSQGVNWFHWKGHEHSIQFAEMKLRPSNFRNLEGRRKRA |  |  | did not induce IL-8 synthesis |  | stimulated | further enhanced synthesis of all these cytokines | able to induce joint inflammation | No inflammation or proteoglycan loss | inflammatory cell infiltration (FIG. 6f), mild synovitis, pannus formation (FIG. 6g) and proteoglycan loss (FIG. 6h) | A similar response | proadhesive | proadhesive | does not stimulate cytokine synthesis | unaffected | does not stimulate cytokine synthesis |
